Molecular target: His-tagged wildtype EGFR kinase domain (human, UniProt P00533 696-1022, limits assumed)
Test: cell-based or functional assay

B1: 25-mer peptide corresponding to residues 340-364 in Mig-6 (peptide)
peptide: SYLNGVMPPTQSFAPDPKYVSSKAL
Which “inhibition of activated EGFR kinase (IC50)” value does the source give for B1 here?
Its value is about 100 µM.
